Measurements: the Human Domainome abundance scans (Beltran et al. 2025)
± gives the uncertainty stated by the source.

B1: Gamma-crystallin S, residues 96 to 176; numbered along this chain, P22914 (parent)
chain: IQIFEKGDFSGQMYETTEDCPSIMEQFHMREIHSCKVLEGVWIFYELPNYRGRQYLLDKKEYRKPIDWGAASPAVQSFRRI

Variants of: B1
Test: abundance fitness (aPCA) (normalised: wild type 0, dead -1); higher = more abundant; growth selection in yeast, the domain comes from the species named
Settings: Homo sapiens

Abundance fitness of substitutions, site by site:
Y45: I -1.1 ± 0.45, F -0.04 ± 0.11, H -0.123 ± 0.12, C -0.273 ± 0.1, L -0.651 ± 0.098, Q -0.888 ± 0.17, W -0.065 ± 0.092, G -0.669 ± 0.082, R -0.841 ± 0.087, K -0.712 ± 0.24, V -1.07 ± 0.16, D -1.03 ± 0.39, E -0.794 ± 0.14, N -0.123 ± 0.16, T -0.304 ± 0.14, A -0.397 ± 0.076
E39: F -0.025 ± 0.13, Y -0.045 ± 0.092, T -0.012 ± 0.052, N 0.079 ± 0.13, D -0.028 ± 0.12, M -0.014 ± 0.057, S 0.035 ± 0.056, V 0.061 ± 0.052, P -0.227 ± 0.078, K 0 ± 0.069, W -0.06 ± 0.035, A 0.059 ± 0.046, C -0.039 ± 0.081, H -0.1 ± 0.12, Q -0.03 ± 0.081, R 0.054 ± 0.037
V37: R 0.042 ± 0.037, Q -0.105 ± 0.057, Y -0.769 ± 0.21, T 0.004 ± 0.043
L38: F -0.017 ± 0.071, S -0.014 ± 0.043, P 0.1 ± 0.06, Y -0.079 ± 0.096, E -0.004 ± 0.053, W -0.024 ± 0.049, M -0.046 ± 0.095, R 0.004 ± 0.037, K -0.016 ± 0.075, H 0.043 ± 0.12, T 0.012 ± 0.058, A 0.032 ± 0.044, G 0.02 ± 0.03, C -0.067 ± 0.065, Q -0.072 ± 0.054, I -0.15 ± 0.11
I43: N 0.007 ± 0.14, F 0.008 ± 0.089, V -0.013 ± 0.049, H -0.162 ± 0.36, E 0.117 ± 0.063, Y 0.047 ± 0.12, W -0.032 ± 0.07, S 0.015 ± 0.053, Q 0.056 ± 0.13, K -0.123 ± 0.1, R 0.016 ± 0.048, G 0.028 ± 0.042, M 0.074 ± 0.12, P -1.1 ± 0.2
F44: K -0.929 ± 0.22, R -1.02 ± 0.086, E -0.951 ± 0.18, A -0.007 ± 0.05, Q -0.602 ± 0.097, Y -0.104 ± 0.12, N -0.868 ± 0.44, M 0.064 ± 0.055, W -0.141 ± 0.075, C 0.035 ± 0.068, V 0.009 ± 0.053, G 0.015 ± 0.04, T -0.195 ± 0.069, L 0.005 ± 0.052, P -1.11 ± 0.45, I -0.215 ± 0.25, S -0.272 ± 0.055, H -0.441 ± 0.075
G40: T -0.251 ± 0.075, W -0.312 ± 0.068, F -0.261 ± 0.13, V -1.06 ± 0.16, N -0.14 ± 0.14, M -0.464 ± 0.092, K -0.337 ± 0.1, L -0.739 ± 0.1, Y -0.137 ± 0.15, P -0.028 ± 0.086, S -0.051 ± 0.061, H -0.252 ± 0.14, D -0.012 ± 0.1, I -0.759 ± 0.28, A -0.051 ± 0.039, R -0.322 ± 0.049, C -0.158 ± 0.086
E46: H -0.047 ± 0.21, W -0.875 ± 0.11, T -0.13 ± 0.096, A -0.016 ± 0.082, F -0.584 ± 0.14, R -0.137 ± 0.053, I -0.777 ± 0.25, G -0.094 ± 0.051, Q 0.034 ± 0.1, M -0.21 ± 0.091, L -0.279 ± 0.052, N -0.275 ± 0.16, S -0.101 ± 0.054, D -0.476 ± 0.26, V -0.386 ± 0.059, P -0.16 ± 0.082, C -0.008 ± 0.19
L47: A -0.047 ± 0.068, M 0.07 ± 0.094, P -0.909 ± 0.26, E -0.004 ± 0.062, G -0.051 ± 0.037, N -0.203 ± 0.22, K 0 ± 0.099, Q -0.113 ± 0.12, S -0.056 ± 0.073, D -0.093 ± 0.18, C -0.022 ± 0.11, R 0.011 ± 0.042, F 0.046 ± 0.083, I -0.436 ± 0.11, H 0.065 ± 0.11
V41: K 0.052 ± 0.12, M 0.041 ± 0.095, A 0.063 ± 0.059, F -0.001 ± 0.092, R 0.047 ± 0.046, S -0.026 ± 0.069, W -0.132 ± 0.058, G 0.105 ± 0.041, I -0.101 ± 0.14, L 0.023 ± 0.053, P -0.051 ± 0.1, Y -0.162 ± 0.12, D -0.01 ± 0.17, T 0.096 ± 0.089, Q 0.055 ± 0.081, C -0.112 ± 0.1
W42: R -0.986 ± 0.093, V -0.042 ± 0.046, D -1.06 ± 0.32, C -0.156 ± 0.073, K -0.787 ± 0.19, A -0.157 ± 0.056, P -1.04 ± 0.28, E -0.363 ± 0.13, G -1.02 ± 0.092, Q -0.906 ± 0.24, F -0.051 ± 0.11, L -0.241 ± 0.064, H -0.461 ± 0.14, M -0.231 ± 0.096, S -0.901 ± 0.091, T -0.709 ± 0.13, N -0.445 ± 0.13, Y 0.046 ± 0.073
